By Kd is commonly meant the equilibrium constant for the complex coming apart. Usually koff stands for the first-order rate constant of dissociation. As usually defined, the kon is the second-order rate constant of association.

The results in this text go back to patent publication EP4725969A1 (Latticon (Suzhou) Biopharmaceuticals Co., Ltd., dated 2024).

First the molecules themselves.
B1: Hu2117HK-Mu24 (Fc fusion)
scFv: EVQLVESGGGLVQPGGSLRLSCAASGFTYSSYGMSWVRQAPGKGLEWVASISGGGSYTKYPDSVKGRFTISRDNSKNTLYLQMNSLRAEDTAVYYCARDYAGFFDVWGQGTLVTVSSGGGGSGGGGSGGGGSDIQMTQSPSSLSASVGDRVTITCRSSQSLVHSNINTYLHWYQQKPGKAPKLLIYKVSNRFSGVPSRFSGSGSGTDFTLTISSLQPEDFATYFCSQSTHVPYTFGQGTKVEIK
notes: scFv-hIgG1 Fc; not shown: human IgG1 Fc
B2: Hu2117HK-Mu39 (Fc fusion)
scFv: EVQLVESGGGLVQPGGSLRLSCAASGFTYSNYGMSWVRQAPGKGLEWVASISGGGSYTKYPDSVKGRFTISRDNSKNTLYLQMNSLRAEDTAVYYCARDYAGFFDVWGQGTLVTVSSGGGGSGGGGSGGGGSDIQMTQSPSSLSASVGDRVTITCRSSQSLVHSNGNTYLHWYQQKPGKAPKLLIYKVSNRFSGVPSRFSGSGSGTDFTLTISSLQPEDFATYFCSQSTHVPYTFGQGTKVEIK
notes: as for B1
B3: Hu2117HK-Mu43 (Fc fusion, name in Kabat numbering)
scFv: EVQLVESGGGLVQPGGSLRLSCAASGFTYSSYGMSWVRQAPGKGLEWVASISGGGSYTKYPDSVKGRFTISRDNSKNTLYLQMNSLRAEDTAVYYCARDYDGFFDVWGQGTLVTVSSGGGGSGGGGSGGGGSDIQMTQSPSSLSASVGDRVTITCRSSQSLVHSNGNTYLHWYQQKPGKAPKLLIYKVSNRFSGVPSRFSGSGSGTDFTLTISSLQPEDFATYFCSQSTHVPYTFGQGTKVEIK
notes: as for B1
B4: Hu2117HK-Mu38 (Fc fusion)
scFv: EVQLVESGGGLVQPGGSLRLSCAASGFTYNNYGMSWVRQAPGKGLEWVASISGGGSYTKYPDSVKGRFTISRDNSKNTLYLQMNSLRAEDTAVYYCARDYAGFFDVWGQGTLVTVSSGGGGSGGGGSGGGGSDIQMTQSPSSLSASVGDRVTITCRSSQSLVHSNGNTYLHWYQQKPGKAPKLLIYKVSNRFSGVPSRFSGSGSGTDFTLTISSLQPEDFATYFCSQSTHVPYTFGQGTKVEIK
notes: as for B1
B5: Hu2117HK-Mu35 (Fc fusion, name in Kabat numbering)
scFv: EVQLVESGGGLVQPGGSLRLSCAASGFTYSSYGMSWVRQAPGKGLEWVASISGGGSYTKYPDSVKGRFTISRDNSKNTLYLQMNSLRAEDTAVYYCARDYAGFFDVWGQGTLVTVSSGGGGSGGGGSGGGGSDIQMTQSPSSLSASVGDRVTITCRSSQSLVHSNGNTYLHWYQQKPGKAPKLLIYKVSNRFSGVPSRFSGSGSGTDFTLTISSLQPEDFATYFCLQSTHVPYTFGQGTKVEIK
notes: as for B1
B6: Hu2117HK-Mu36 (Fc fusion, name in Kabat numbering)
scFv: EVQLVESGGGLVQPGGSLRLSCAASGFTYSSYGMSWVRQAPGKGLEWVASISGGGSYTKYPDSVKGRFTISRDNSKNTLYLQMNSLRAEDTAVYYCARDYAGFFDVWGQGTLVTVSSGGGGSGGGGSGGGGSDIQMTQSPSSLSASVGDRVTITCRSSQSLVHSNGNTYLHWYQQKPGKAPKLLIYKVSNRFSGVPSRFSGSGSGTDFTLTISSLQPEDFATYFCMQSTHVPYTFGQGTKVEIK
notes: as for B1
B7: Hu2117HK-Mu30 (Fc fusion, not shown: a dimerising Fc or GST; small tags and cut ends)
scFv: EVQLVESGGGLVQPGGSLRLSCAASGFTYSSYGMSWVRQAPGKGLEWVASISGGGSYTKYPDSVKGRFTISRDNSKNTLYLQMNSLRAEDTAVYYCARDYAGFFDVWGQGTLVTVSSGGGGSGGGGSGGGGSDIQMTQSPSSLSASVGDRVTITCRSSQSLVDSNGNTYLHWYQQKPGKAPKLLIYKVSNRFSGVPSRFSGSGSGTDFTLTISSLQPEDFATYFCSQSTHVPYTFGQGTKVEIK
notes: scFv-hIgG1 Fc
B8: Hu2117HK-Mu25 (Fc fusion)
scFv: EVQLVESGGGLVQPGGSLRLSCAASGFTYSSYGMSWVRQAPGKGLEWVASISGGGSYTKYPDSVKGRFTISRDNSKNTLYLQMNSLRAEDTAVYYCARDYAGFFDVWGQGTLVTVSSGGGGSGGGGSGGGGSDIQMTQSPSSLSASVGDRVTITCRSSQSLVHSNSNTYLHWYQQKPGKAPKLLIYKVSNRFSGVPSRFSGSGSGTDFTLTISSLQPEDFATYFCSQSTHVPYTFGQGTKVEIK
notes: as for B1
B9: Hu2117HK-Mu42 (Fc fusion)
scFv: EVQLVESGGGLVQPGGSLRLSCAASGFTYSSYGMSWVRQAPGKGLEWVASISGSGSYTKYPDSVKGRFTISRDNSKNTLYLQMNSLRAEDTAVYYCARDYAGFFDVWGQGTLVTVSSGGGGSGGGGSGGGGSDIQMTQSPSSLSASVGDRVTITCRSSQSLVHSNGNTYLHWYQQKPGKAPKLLIYKVSNRFSGVPSRFSGSGSGTDFTLTISSLQPEDFATYFCSQSTHVPYTFGQGTKVEIK
notes: as for B1
B10: Hu2117HK-Mu27 (Fc fusion)
scFv: EVQLVESGGGLVQPGGSLRLSCAASGFTYSSYGMSWVRQAPGKGLEWVASISGGGSYTKYPDSVKGRFTISRDNSKNTLYLQMNSLRAEDTAVYYCARDYAGFFDVWGQGTLVTVSSGGGGSGGGGSGGGGSDIQMTQSPSSLSASVGDRVTITCRSSQSLVHSNRNTYLHWYQQKPGKAPKLLIYKVSNRFSGVPSRFSGSGSGTDFTLTISSLQPEDFATYFCSQSTHVPYTFGQGTKVEIK
notes: as for B1
B11: Hu2117HK-Mu28 (Fc fusion)
scFv: EVQLVESGGGLVQPGGSLRLSCAASGFTYSSYGMSWVRQAPGKGLEWVASISGGGSYTKYPDSVKGRFTISRDNSKNTLYLQMNSLRAEDTAVYYCARDYAGFFDVWGQGTLVTVSSGGGGSGGGGSGGGGSDIQMTQSPSSLSASVGDRVTITCRSSQSLVHSNTNTYLHWYQQKPGKAPKLLIYKVSNRFSGVPSRFSGSGSGTDFTLTISSLQPEDFATYFCSQSTHVPYTFGQGTKVEIK
notes: as for B1
B12: Hu2117HK-Mu44 (Fc fusion, name in Kabat numbering)
scFv: EVQLVESGGGLVQPGGSLRLSCAASGFTYSSYGMSWVRQAPGKGLEWVASISGGGSYTKYPDSVKGRFTISRDNSKNTLYLQMNSLRAEDTAVYYCARDYEGFFDVWGQGTLVTVSSGGGGSGGGGSGGGGSDIQMTQSPSSLSASVGDRVTITCRSSQSLVHSNGNTYLHWYQQKPGKAPKLLIYKVSNRFSGVPSRFSGSGSGTDFTLTISSLQPEDFATYFCSQSTHVPYTFGQGTKVEIK
notes: as for B1
B13: Hu2117HK-Mu40 (Fc fusion)
scFv: EVQLVESGGGLVQPGGSLRLSCAASGFTYSDYGMSWVRQAPGKGLEWVASISGGGSYTKYPDSVKGRFTISRDNSKNTLYLQMNSLRAEDTAVYYCARDYAGFFDVWGQGTLVTVSSGGGGSGGGGSGGGGSDIQMTQSPSSLSASVGDRVTITCRSSQSLVHSNGNTYLHWYQQKPGKAPKLLIYKVSNRFSGVPSRFSGSGSGTDFTLTISSLQPEDFATYFCSQSTHVPYTFGQGTKVEIK
notes: as for B1
B14: Hu2117HK-Mu34 (Fc fusion)
scFv: EVQLVESGGGLVQPGGSLRLSCAASGFTYSSYGMSWVRQAPGKGLEWVASISGGGSYTKYPDSVKGRFTISRDNSKNTLYLQMNSLRAEDTAVYYCARDYAGFFDVWGQGTLVTVSSGGGGSGGGGSGGGGSDIQMTQSPSSLSASVGDRVTITCRSSQSLVHSNGNTYLHWYQQKPGKAPKLLIYKVSNRFSGVPSRFSGSGSGTDFTLTISSLQPEDFATYFCQQSTHVPYTFGQGTKVEIK
notes: as for B1
B15: Hu2117HK-Mu32 (Fc fusion)
scFv: EVQLVESGGGLVQPGGSLRLSCAASGFTYSSYGMSWVRQAPGKGLEWVASISGGGSYTKYPDSVKGRFTISRDNSKNTLYLQMNSLRAEDTAVYYCARDYAGFFDVWGQGTLVTVSSGGGGSGGGGSGGGGSDIQMTQSPSSLSASVGDRVTITCRSSQSLVSSNGNTYLHWYQQKPGKAPKLLIYKVSNRFSGVPSRFSGSGSGTDFTLTISSLQPEDFATYFCSQSTHVPYTFGQGTKVEIK
notes: as for B1
B16: Hu2117HK-Mu41 (Fc fusion)
scFv: EVQLVESGGGLVQPGGSLRLSCAASGFTYSSYGMSWVRQAPGKGLEWVASISGGGNYAKYPDSVKGRFTISRDNSKNTLYLQMNSLRAEDTAVYYCARDYAGFFDVWGQGTLVTVSSGGGGSGGGGSGGGGSDIQMTQSPSSLSASVGDRVTITCRSSQSLVHSNGNTYLHWYQQKPGKAPKLLIYKVSNRFSGVPSRFSGSGSGTDFTLTISSLQPEDFATYFCSQSTHVPYTFGQGTKVEIK
notes: as for B1
B17: Hu2117HK-Mu29 (Fc fusion)
scFv: EVQLVESGGGLVQPGGSLRLSCAASGFTYSSYGMSWVRQAPGKGLEWVASISGGGSYTKYPDSVKGRFTISRDNSKNTLYLQMNSLRAEDTAVYYCARDYAGFFDVWGQGTLVTVSSGGGGSGGGGSGGGGSDIQMTQSPSSLSASVGDRVTITCRSSQSLLHSNGNTYLHWYQQKPGKAPKLLIYKVSNRFSGVPSRFSGSGSGTDFTLTISSLQPEDFATYFCSQSTHVPYTFGQGTKVEIK
notes: as for B1

This assay addresses T1, recombinant human HER2 extracellular domain protein (human, UniProt P04626 23-652).
T1 construct: range 23-652; Range is printed for the immunogen/panning protein; also called ErbB2; recombinant HER2 protein
Nature of the assay: BLI, Protein A capture. A general note: Biolayer interferometry detects binding as a change in optical thickness at a sensor tip.
As to B1, the equilibrium dissociation constant (Kd) amounted to 6.65 nM, the off-rate constant (koff) was 0.000423 s⁻¹ and the kon is 63700 M⁻¹ s⁻¹.

With B2, the Kd stood at 12.3 nM, the off-rate constant (koff) came to 0.0012 s⁻¹ and the kon was 97700 M⁻¹ s⁻¹.

On to B3, for which the equilibrium dissociation constant (Kd) stood at 56.7 nM, the off-rate constant (koff) came to 0.00406 s⁻¹ and the kon was determined as 71700 M⁻¹ s⁻¹.

With B4, the Kd is 12.1 nM, the dissociation rate constant (koff) is 0.00121 s⁻¹ and the kon is 100000 M⁻¹ s⁻¹.

With B5, the Kd amounted to 59.8 nM, the koff was determined as 0.0037 s⁻¹ and the kon is 61900 M⁻¹ s⁻¹.

On to B6, for which the Kd came out at 31.4 nM, the off-rate (koff) came to 0.00198 s⁻¹ and the kon stood at 63200 M⁻¹ s⁻¹.

As for B7, the Kd turned out to be 8.27 nM, the koff turned out to be 0.000301 s⁻¹ and the kon turned out to be 36400 M⁻¹ s⁻¹.

In the case of B8, the Kd is 6.73 nM, the koff stood at 0.00056 s⁻¹ and the kon worked out at 83100 M⁻¹ s⁻¹.

As to B9, the equilibrium dissociation constant (Kd) is 33.5 nM, the koff was determined as 0.00178 s⁻¹ and the kon was determined as 53000 M⁻¹ s⁻¹.

As to B10, the Kd worked out at 7.38 nM, the koff came out at 0.000592 s⁻¹ and the kon was found to be 80200 M⁻¹ s⁻¹.

Consider B11, for which the Kd was found to be 7.15 nM, the koff amounted to 0.000592 s⁻¹ and the kon was 82800 M⁻¹ s⁻¹.

In the case of B12, the Kd came to 42.5 nM, the koff was 0.0034 s⁻¹ and the on-rate (kon) turned out to be 80000 M⁻¹ s⁻¹.

On to B13, for which the Kd was 11.9 nM, the koff amounted to 0.000867 s⁻¹ and the association rate constant (kon) was determined as 72700 M⁻¹ s⁻¹.

For B14, the Kd came to 12.6 nM, the koff worked out at 0.00117 s⁻¹ and the kon came out at 93500 M⁻¹ s⁻¹.

For the molecule B15, the dissociation constant Kd stood at 6.09 nM, the koff was 0.000366 s⁻¹ and the on-rate (kon) worked out at 60100 M⁻¹ s⁻¹.

As to B16, the Kd was found to be 9.66 nM, the koff worked out at 0.000603 s⁻¹ and the on-rate constant (kon) was determined as 62400 M⁻¹ s⁻¹.

With B17, the equilibrium dissociation constant (Kd) came out at 7.62 nM, the koff is 0.000668 s⁻¹ and the kon was found to be 87700 M⁻¹ s⁻¹.
